Data from the supplement of paper PMC11136658.

System: peptide library, one residue held at a place counted from the Y acceptor
Assay: relative phosphorylation of the sub-library (ratio to the mean residue at this position); higher = residue favoured
In short: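 Each value expresses phosphorylation relative to the mean randomized residue. Purified recombinant kinases acted for 90 min in 384-well plates on biotinylated Tyr-centred peptide library mixtures, with one residue fixed at one position from −5 to +5, in the presence of 50 μM ATP with γ-32P-ATP. Signals were read by phosphorimaging after capture on streptavidin membranes, then normalized per position to the sum of the 18 randomized residues (16 in the Ser/Thr-free library) and multiplied by that number.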

EPHA2, construct: aa561-end, human, sequence (P29317 561-976, looked up): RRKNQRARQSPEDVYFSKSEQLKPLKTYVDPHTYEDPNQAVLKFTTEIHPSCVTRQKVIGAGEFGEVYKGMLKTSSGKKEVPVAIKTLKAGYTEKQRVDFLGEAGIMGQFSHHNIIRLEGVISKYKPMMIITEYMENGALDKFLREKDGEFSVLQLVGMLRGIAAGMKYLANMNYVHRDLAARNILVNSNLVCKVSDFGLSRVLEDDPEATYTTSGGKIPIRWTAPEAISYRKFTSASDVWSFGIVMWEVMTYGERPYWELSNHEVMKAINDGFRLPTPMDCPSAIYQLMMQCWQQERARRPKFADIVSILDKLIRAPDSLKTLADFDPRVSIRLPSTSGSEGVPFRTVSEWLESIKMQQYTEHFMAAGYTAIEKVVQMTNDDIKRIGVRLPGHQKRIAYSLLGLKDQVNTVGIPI
EPHA3, construct: aa571-end, human, sequence (P29320 571-983, looked up): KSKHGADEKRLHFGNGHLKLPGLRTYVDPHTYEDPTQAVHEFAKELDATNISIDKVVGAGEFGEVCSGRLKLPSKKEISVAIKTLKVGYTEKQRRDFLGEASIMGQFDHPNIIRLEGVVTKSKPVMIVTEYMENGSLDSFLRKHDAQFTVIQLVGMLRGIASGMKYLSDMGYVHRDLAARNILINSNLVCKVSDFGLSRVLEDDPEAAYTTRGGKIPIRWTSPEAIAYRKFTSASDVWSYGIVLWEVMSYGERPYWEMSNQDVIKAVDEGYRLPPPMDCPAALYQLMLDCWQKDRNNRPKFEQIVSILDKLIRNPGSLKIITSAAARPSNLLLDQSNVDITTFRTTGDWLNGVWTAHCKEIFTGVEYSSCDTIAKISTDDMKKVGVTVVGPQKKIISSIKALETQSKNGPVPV
EPHA4, construct: aa610-887, human, sequence (P54764 610-887, looked up): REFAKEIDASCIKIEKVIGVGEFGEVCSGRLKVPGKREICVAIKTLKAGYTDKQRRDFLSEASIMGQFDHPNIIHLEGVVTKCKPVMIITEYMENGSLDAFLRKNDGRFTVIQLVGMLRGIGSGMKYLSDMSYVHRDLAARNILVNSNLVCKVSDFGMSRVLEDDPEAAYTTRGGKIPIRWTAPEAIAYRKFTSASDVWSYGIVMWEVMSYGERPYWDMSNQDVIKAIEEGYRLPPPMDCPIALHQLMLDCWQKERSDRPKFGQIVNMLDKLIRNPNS

EPHA2, construct: aa561-end, human (from UniProt P29317)
relative phosphorylation
Conditions	at +1	at +2	at +3	at +4	at +5	at -1	at -2	at -3	at -4	at -5
A fixed	1.31	0.627	0.592	0.785	0.992	0.392	1.11	0.791	1.04	0.971
D fixed	0.849	1.83	0.379	0.913	1.26	3.48	1.25	1.54	1.25	1.23
E fixed	2.74	2.13	0.34	1.28	1.22	2.02	1.74	1.76	1.41	1.03
F fixed	0.725	1.35	1.4	1.13	1.1	0.943	0.617	1.32	1.09	1.12
G fixed	0.517	0.298	0.508	1.15	1.15	0.198	1.22	0.847	1.26	1.15
H fixed	1.65	0.815	0.725	1.29	0.993	0.836	0.817	1.06	0.843	0.916
I fixed	1.84	1.08	3.27	0.777	0.778	1.92	0.914	0.914	0.999	1.04
K fixed	0.165	0.339	0.183	0.567	0.616	0.17	0.657	0.502	0.737	0.873
L fixed	0.892	0.944	1.84	0.662	0.877	1.83	0.82	0.873	1.05	1.05
M fixed	1.62	0.988	1.64	0.989	0.87	0.733	0.654	0.809	0.986	0.978
N fixed	0.322	1.07	0.395	0.718	0.8	1.83	1.3	1.07	0.802	1.06
P fixed	0.15	0.54	1.33	1.52	1.67	0.257	1.24	1.08	1.07	0.972
Q fixed	0.852	0.723	0.628	0.844	0.773	0.351	1.01	0.774	1.05	0.986
R fixed	0.18	0.481	0.262	0.692	0.613	0.219	0.832	0.607	0.871	0.92
S fixed	0.61	0.691	0.426	1.02	1.02	0.366	1.39	0.923	0.815	0.835
T fixed	0.783	0.816	0.621	0.886	1.22	0.931	1	0.903	0.79	0.827
V fixed	1.81	1.05	2.07	0.759	0.827	0.974	0.838	0.888	0.802	0.9
W fixed	0.979	2.23	1.4	2.02	1.21	0.554	0.61	1.34	1.12	1.15
pThr fixed	2.09	2.85	0.454	1.09	0.852	3.53	0.956	0.833	1.22	1.26
pTyr fixed	3.93	7.03	1.08	1.44	1.31	4.75	1.15	1.43	1.54	1.4

EPHA3, construct: aa571-end, human (from UniProt P29320)
relative phosphorylation
Conditions	at +1	at +2	at +3	at +4	at +5	at -1	at -2	at -3	at -4	at -5
A fixed	1.63	0.63	0.711	0.794	1.05	0.536	1.11	0.827	1.03	0.924
D fixed	1.1	1.73	0.574	1.03	1.04	2.68	1.16	1.07	1.06	0.949
E fixed	1.89	1.71	0.544	1.06	0.941	1.19	1.04	1.17	1.05	0.848
F fixed	0.91	1.44	1.4	1.16	1.42	0.997	0.863	1.32	1.3	1.15
G fixed	0.902	0.424	0.526	1.14	0.981	0.389	1.04	0.853	1.01	1.02
H fixed	0.53	0.717	0.69	0.998	0.756	0.534	0.804	0.959	0.859	0.996
I fixed	1.18	1.02	2.34	0.801	0.925	1.83	0.939	1.11	0.974	0.999
K fixed	0.407	0.47	0.403	0.685	0.653	0.382	0.899	0.674	0.918	1.01
L fixed	0.982	0.908	1.62	0.754	1.19	1.75	1.13	0.995	1.34	1.11
M fixed	1.17	0.915	0.989	0.951	0.885	0.827	0.747	0.976	0.837	0.891
N fixed	0.556	1.05	0.514	0.809	0.774	2.18	0.942	1.06	0.817	1.03
P fixed	0.353	0.567	1.42	1.25	1.52	0.44	1.15	1.02	1.06	1.09
Q fixed	1.28	0.789	0.775	0.997	0.8	0.567	1.25	0.894	1.09	1.02
R fixed	0.473	0.601	0.505	0.809	0.648	0.411	0.842	0.806	0.847	0.982
S fixed	0.811	0.685	0.63	0.877	1.06	0.525	1.28	0.902	0.785	0.836
T fixed	0.694	0.742	0.589	0.866	0.841	0.867	0.805	0.885	0.653	0.774
V fixed	1.59	0.905	1.85	0.779	1.04	1.04	1.04	0.994	0.903	0.836
W fixed	1.54	2.7	1.92	2.23	1.47	0.849	0.966	1.48	1.48	1.53
pThr fixed	1.53	2.12	0.736	1.05	0.946	1.88	1.04	0.915	0.851	0.854
pTyr fixed	1.9	7.49	1.44	1.89	1.07	2.88	1.1	1.22	1.13	1.15

EPHA4, construct: aa610-887, human (from UniProt P54764)
relative phosphorylation
Conditions	at +1	at +2	at +3	at +4	at +5	at -1	at -2	at -3	at -4	at -5
A fixed	1.32	0.737	0.831	0.822	0.978	0.712	1.1	0.763	1.03	1.01
D fixed	1.31	2.05	0.748	1.15	1.18	2.37	1.27	1.2	1.28	1.11
E fixed	3.45	2.28	0.728	1.52	1.29	1.52	1.41	1.34	1.23	1.02
F fixed	0.73	1.14	1.22	0.976	1.25	0.885	0.778	1.24	1.16	1.08
G fixed	0.817	0.564	0.695	0.991	1.1	0.533	0.929	0.804	1.11	1.02
H fixed	0.631	0.779	0.833	1.07	0.933	0.672	0.865	0.873	0.867	0.959
I fixed	0.966	0.952	2.01	0.831	0.904	1.72	0.931	1.12	0.962	0.981
K fixed	0.473	0.527	0.525	0.679	0.67	0.513	0.825	0.594	0.836	0.965
L fixed	0.782	0.829	1.35	0.859	1.01	1.45	1.06	0.976	1.01	1.03
M fixed	1.06	0.86	1.13	0.923	0.938	0.802	0.777	0.851	0.902	1.01
N fixed	0.6	1.09	0.694	0.883	0.901	1.57	1.05	0.901	0.896	1
P fixed	0.509	0.757	1.5	1.25	1.44	0.641	1.42	0.94	1.12	1.05
Q fixed	1.02	0.797	0.708	0.909	0.82	0.638	1.07	0.753	1.04	0.95
R fixed	0.505	0.624	0.588	0.764	0.727	0.555	0.849	0.649	0.834	0.98
S fixed	0.757	0.756	0.685	0.897	0.945	0.689	1.1	0.851	0.919	0.921
T fixed	0.74	0.785	0.733	0.881	0.922	0.935	0.834	1.87	0.815	0.854
V fixed	1.38	0.997	1.59	0.84	0.879	1.08	0.95	0.959	0.861	0.918
W fixed	0.948	1.48	1.45	1.76	1.12	0.718	0.79	1.31	1.13	1.14
pThr fixed	1.73	2.97	0.917	1.23	1.13	2.06	1.1	0.813	0.997	0.912
pTyr fixed	1.87	8.24	1.28	1.75	1.33	2.22	1.09	1.01	1.09	1.07
